Patent publication US20170190753A1 (LABORATOIRE FRANCAIS DU FRACTIONNEMENT ET DES …, published 2017)

Each binder was assayed against C3 convertase complex (UniProt P01024 23-1663; P00751 260-764) (assay: cell-based or functional assay).
For C3 convertase activity % of the control in this document: test concentration or dose not given here.

Sequence of C3 convertase complex (P01024 23-1663, chain 1 of 2): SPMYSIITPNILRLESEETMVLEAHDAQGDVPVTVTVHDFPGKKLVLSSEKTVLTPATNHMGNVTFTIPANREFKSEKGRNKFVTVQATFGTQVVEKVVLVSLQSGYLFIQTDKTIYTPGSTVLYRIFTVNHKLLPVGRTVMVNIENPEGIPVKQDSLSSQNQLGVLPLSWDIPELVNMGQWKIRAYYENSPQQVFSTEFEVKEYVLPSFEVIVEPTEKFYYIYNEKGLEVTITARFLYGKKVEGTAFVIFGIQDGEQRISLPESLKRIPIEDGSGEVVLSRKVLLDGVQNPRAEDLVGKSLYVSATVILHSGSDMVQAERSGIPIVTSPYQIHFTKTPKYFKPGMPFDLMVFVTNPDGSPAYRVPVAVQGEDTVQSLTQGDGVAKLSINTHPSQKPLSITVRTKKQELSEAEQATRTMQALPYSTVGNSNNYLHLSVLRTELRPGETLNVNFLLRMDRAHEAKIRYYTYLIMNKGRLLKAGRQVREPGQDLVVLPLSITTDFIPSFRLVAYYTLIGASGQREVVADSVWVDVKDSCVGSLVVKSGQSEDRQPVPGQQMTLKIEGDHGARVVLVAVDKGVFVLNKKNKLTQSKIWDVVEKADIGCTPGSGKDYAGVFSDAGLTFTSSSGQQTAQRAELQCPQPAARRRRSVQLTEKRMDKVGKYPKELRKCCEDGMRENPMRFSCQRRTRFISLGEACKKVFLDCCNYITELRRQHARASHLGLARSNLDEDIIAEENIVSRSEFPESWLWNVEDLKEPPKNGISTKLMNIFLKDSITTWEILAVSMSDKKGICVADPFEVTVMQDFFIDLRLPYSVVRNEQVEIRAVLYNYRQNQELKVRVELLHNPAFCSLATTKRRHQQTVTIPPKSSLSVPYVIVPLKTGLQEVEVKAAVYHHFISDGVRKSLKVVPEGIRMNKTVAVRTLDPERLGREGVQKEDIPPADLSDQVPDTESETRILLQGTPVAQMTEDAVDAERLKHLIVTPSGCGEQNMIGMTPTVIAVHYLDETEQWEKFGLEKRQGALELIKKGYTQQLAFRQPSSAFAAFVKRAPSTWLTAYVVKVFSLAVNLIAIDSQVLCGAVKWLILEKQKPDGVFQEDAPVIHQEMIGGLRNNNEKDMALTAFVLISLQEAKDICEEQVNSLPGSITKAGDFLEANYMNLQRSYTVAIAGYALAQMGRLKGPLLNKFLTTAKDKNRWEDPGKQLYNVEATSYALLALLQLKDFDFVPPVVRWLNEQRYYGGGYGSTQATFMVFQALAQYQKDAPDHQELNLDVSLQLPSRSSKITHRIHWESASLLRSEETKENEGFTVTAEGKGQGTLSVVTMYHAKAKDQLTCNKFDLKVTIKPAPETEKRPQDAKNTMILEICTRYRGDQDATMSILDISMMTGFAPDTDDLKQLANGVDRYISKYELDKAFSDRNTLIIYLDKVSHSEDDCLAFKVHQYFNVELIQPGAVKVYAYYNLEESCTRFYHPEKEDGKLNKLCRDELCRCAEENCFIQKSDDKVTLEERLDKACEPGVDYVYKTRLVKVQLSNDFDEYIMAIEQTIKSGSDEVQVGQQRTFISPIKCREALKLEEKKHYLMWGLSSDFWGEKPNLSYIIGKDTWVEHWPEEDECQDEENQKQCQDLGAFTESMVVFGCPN
Sequence of C3 convertase complex (P00751 260-764, chain 2 of 2): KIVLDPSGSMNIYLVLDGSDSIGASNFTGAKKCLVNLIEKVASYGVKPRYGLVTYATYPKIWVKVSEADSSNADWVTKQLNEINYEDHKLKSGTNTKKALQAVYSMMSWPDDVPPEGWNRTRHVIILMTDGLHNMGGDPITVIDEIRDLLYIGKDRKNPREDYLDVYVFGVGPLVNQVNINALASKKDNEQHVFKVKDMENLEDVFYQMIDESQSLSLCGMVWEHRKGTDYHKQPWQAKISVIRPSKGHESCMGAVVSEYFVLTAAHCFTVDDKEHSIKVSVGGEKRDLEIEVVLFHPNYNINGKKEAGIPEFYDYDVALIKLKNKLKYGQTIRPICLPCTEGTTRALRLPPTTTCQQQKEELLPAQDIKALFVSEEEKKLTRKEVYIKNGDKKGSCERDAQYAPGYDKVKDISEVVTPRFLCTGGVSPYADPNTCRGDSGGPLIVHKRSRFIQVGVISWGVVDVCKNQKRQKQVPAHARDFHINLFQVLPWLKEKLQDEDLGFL

Binder	C3 convertase activity % of the control	C3 convertase activity IC50 [µg/mL]
pCEP4-1NT8-11CT20 (other) EDCNELPPRRNTEILTGSWSDQTYPEGTQAIYKCRPGYRSLGNVIMVCRKGEWVALNPLRKCQKRPCGHPGDTPFGTFTLTGGNVFEYGVKAVYTCNEGYQLLGEINYRECDTDGWTNDIPICEVVKCLPVTAPENGKIVSSAMEPDREYHFGQAVRFVCNSGYKIEGDEEMHCSDDGFWSKEKPKCVEISCKSPDVINGSPISQKIIYKENERFQYKCNMGYEYSERGDAVCTESGWRPLPSCEEKSCDNPYIPNGDYSPLRIKHRTGDEITYQCRNGFYPATRGNTAKCTSTGWIPAPRCTLKPCDYPDIKHGGLYHENMRRPYFPVAVGKYYSYYCDEHFETPSGSYWDHIHCTQDGWSPAVPCLRKCYFPYLENGYNQNYGRKFVQGKSIDVACHPGYALPKAQTTVTCMENGWSPTPRCIRVKTCSKSSIDIENGFISESQYTYALKEKAKYQCKLGYVTADGETSGSITCGKDGWSAQPTCIKSGASGCGPPPELLNGNVKEKTKEEYGHSEVVEYYCNPRFLMKGPNKIQCVDGEWTTLPVCIVEESTCGDIPELEHGWAQLSSPPYYYGDSVEFNCSESFTMIGHRSITCIHGVWTQLPQCVAIDKLKKCKSSNLIILEEHLKNKKEFDHNSNIRYRCRGKEGWIHTVCINGRWDPEVNCSMAQIQLCPPPPQIPNSHNMTTTLNYRDGEKVSVLCQENYLIQEGEEITCKDGRWQSIPLCVEKIPCSQPPQIEHGTINSSRSSQESYAHGTKLSYTCEGGFRISEENETTCYMGKWSSPPQCEGLPCKSPPEISHGVVAHMSDSYQYGEEVTYKCFEGFGIDGPAIAKCLGEKWSHPPSCIKTDCLSLPSFENAIPMGEKKDVYKAGEQVTYTCATYYKMDGASNVTCINSRWTGRPTCRDTSCVNPPTVQNAYIVSRQMSKYPSGERVRYQCRSPYEMFGDEEVMCLNGNWTEPPQCKDSTGKCGPPPPIDNGDITSFPLSVYAPASSVEYQCQNLYQLEGNKRITCRNGQWSEPPKCLHPCVISREIMENYNIALRWTAKQKLYSRTGESVEFVCKRGYRLSSRSHTLRTTCWDGKLEYPTCAKRGGSGHHHHHH	77 % of the control	0.471
pCEP4-1NT9-10CT20 (other) EDCNELPPRRNTEILTGSWSDQTYPEGTQAIYKCRPGYRSLGNVIMVCRKGEWVALNPLRKCQKRPCGHPGDTPFGTFTLTGGNVFEYGVKAVYTCNEGYQLLGEINYRECDTDGWTNDIPICEVVKCLPVTAPENGKIVSSAMEPDREYHFGQAVRFVCNSGYKIEGDEEMHCSDDGFWSKEKPKCVEISCKSPDVINGSPISQKIIYKENERFQYKCNMGYEYSERGDAVCTESGWRPLPSCEEKSCDNPYIPNGDYSPLRIKHRTGDEITYQCRNGFYPATRGNTAKCTSTGWIPAPRCTLKPCDYPDIKHGGLYHENMRRPYFPVAVGKYYSYYCDEHFETPSGSYWDHIHCTQDGWSPAVPCLRKCYFPYLENGYNQNYGRKFVQGKSIDVACHPGYALPKAQTTVTCMENGWSPTPRCIRVKTCSKSSIDIENGFISESQYTYALKEKAKYQCKLGYVTADGETSGSITCGKDGWSAQPTCIKSCDIPVFMNARTKNDFTWFKLNDTLDYECHDGYESNTGSTTGSIVCGYNGWSDLPICYEREGASGCELPKIDVHLVPDRKKDQYKVGEVLKFSCKPGFTIVGPNSVQCYHFGLSPDLPICKEQVQSCGPPPELLNGNVKEKTKEEYGHSEVVEYYCNPRFLMKGPNKIQCVDGEWTTLPVCIVEESTCGDIPELEHGWAQLSSPPYYYGDSVEFNCSESFTMIGHRSITCIHGVWTQLPQCVAIDKLKKCKSSNLIILEEHLKNKKEFDHNSNIRYRCRGKEGWIHTVCINGRWDPEVNCSMAQIQLCPPPPQIPNSHNMTTTLNYRDGEKVSVLCQENYLIQEGEEITCKDGRWQSIPLCVEKIPCSQPPQIEHGTINSSRSSQESYAHGTKLSYTCEGGFRISEENETTCYMGKWSSPPQCEGLPCKSPPEISHGVVAHMSDSYQYGEEVTYKCFEGFGIDGPAIAKCLGEKWSHPPSCIKTDCLSLPSFENAIPMGEKKDVYKAGEQVTYTCATYYKMDGASNVTCINSRWTGRPTCRDTSCVNPPTVQNAYIVSRQMSKYPSGERVRYQCRSPYEMFGDEEVMCLNGNWTEPPQCKDSTGKCGPPPPIDNGDITSFPLSVYAPASSVEYQCQNLYQLEGNKRITCRNGQWSEPPKCLHPCVISREIMENYNIALRWTAKQKLYSRTGESVEFVCKRGYRLSSRSHTLRTTCWDGKLEYPTCAKRGGSGHHHHHH	64 % of the control	0.552
pCEP4-1NT4-19CT20 (other) EDCNELPPRRNTEILTGSWSDQTYPEGTQAIYKCRPGYRSLGNVIMVCRKGEWVALNPLRKCQKRPCGHPGDTPFGTFTLTGGNVFEYGVKAVYTCNEGYQLLGEINYRECDTDGWTNDIPICEVVKCLPVTAPENGKIVSSAMEPDREYHFGQAVRFVCNSGYKIEGDEEMHCSDDGFWSKEKPKCVEISCKSPDVINGSPISQKIIYKENERFQYKCNMGYEYSERGDAVCTESGWRPLPSCEEKSGASGCGPPPPIDNGDITSFPLSVYAPASSVEYQCQNLYQLEGNKRITCRNGQWSEPPKCLHPCVISREIMENYNIALRWTAKQKLYSRTGESVEFVCKRGYRLSSRSHTLRTTCWDGKLEYPTCAKRGGSGHHHHHH	73 % of the control	0.0916
pCEP4-1NT7-8CT20 (other) EDCNELPPRRNTEILTGSWSDQTYPEGTQAIYKCRPGYRSLGNVIMVCRKGEWVALNPLRKCQKRPCGHPGDTPFGTFTLTGGNVFEYGVKAVYTCNEGYQLLGEINYRECDTDGWTNDIPICEVVKCLPVTAPENGKIVSSAMEPDREYHFGQAVRFVCNSGYKIEGDEEMHCSDDGFWSKEKPKCVEISCKSPDVINGSPISQKIIYKENERFQYKCNMGYEYSERGDAVCTESGWRPLPSCEEKSCDNPYIPNGDYSPLRIKHRTGDEITYQCRNGFYPATRGNTAKCTSTGWIPAPRCTLKPCDYPDIKHGGLYHENMRRPYFPVAVGKYYSYYCDEHFETPSGSYWDHIHCTQDGWSPAVPCLRKCYFPYLENGYNQNYGRKFVQGKSIDVACHPGYALPKAQTTVTCMENGWSPTPRCIRVKTGASGCSKSSIDIENGFISESQYTYALKEKAKYQCKLGYVTADGETSGSITCGKDGWSAQPTCIKSCDIPVFMNARTKNDFTWFKLNDTLDYECHDGYESNTGSTTGSIVCGYNGWSDLPICYERECELPKIDVHLVPDRKKDQYKVGEVLKFSCKPGFTIVGPNSVQCYHFGLSPDLPICKEQVQSCGPPPELLNGNVKEKTKEEYGHSEVVEYYCNPRFLMKGPNKIQCVDGEWTTLPVCIVEESTCGDIPELEHGWAQLSSPPYYYGDSVEFNCSESFTMIGHRSITCIHGVWTQLPQCVAIDKLKKCKSSNLIILEEHLKNKKEFDHNSNIRYRCRGKEGWIHTVCINGRWDPEVNCSMAQIQLCPPPPQIPNSHNMTTTLNYRDGEKVSVLCQENYLIQEGEEITCKDGRWQSIPLCVEKIPCSQPPQIEHGTINSSRSSQESYAHGTKLSYTCEGGFRISEENETTCYMGKWSSPPQCEGLPCKSPPEISHGVVAHMSDSYQYGEEVTYKCFEGFGIDGPAIAKCLGEKWSHPPSCIKTDCLSLPSFENAIPMGEKKDVYKAGEQVTYTCATYYKMDGASNVTCINSRWTGRPTCRDTSCVNPPTVQNAYIVSRQMSKYPSGERVRYQCRSPYEMFGDEEVMCLNGNWTEPPQCKDSTGKCGPPPPIDNGDITSFPLSVYAPASSVEYQCQNLYQLEGNKRITCRNGQWSEPPKCLHPCVISREIMENYNIALRWTAKQKLYSRTGESVEFVCKRGYRLSSRSHTLRTTCWDGKLEYPTCAKRGGSGHHHHHH	72 % of the control	0.542
pCEP4-1NT9-14CT20 (other) EDCNELPPRRNTEILTGSWSDQTYPEGTQAIYKCRPGYRSLGNVIMVCRKGEWVALNPLRKCQKRPCGHPGDTPFGTFTLTGGNVFEYGVKAVYTCNEGYQLLGEINYRECDTDGWTNDIPICEVVKCLPVTAPENGKIVSSAMEPDREYHFGQAVRFVCNSGYKIEGDEEMHCSDDGFWSKEKPKCVEISCKSPDVINGSPISQKIIYKENERFQYKCNMGYEYSERGDAVCTESGWRPLPSCEEKSCDNPYIPNGDYSPLRIKHRTGDEITYQCRNGFYPATRGNTAKCTSTGWIPAPRCTLKPCDYPDIKHGGLYHENMRRPYFPVAVGKYYSYYCDEHFETPSGSYWDHIHCTQDGWSPAVPCLRKCYFPYLENGYNQNYGRKFVQGKSIDVACHPGYALPKAQTTVTCMENGWSPTPRCIRVKTCSKSSIDIENGFISESQYTYALKEKAKYQCKLGYVTADGETSGSITCGKDGWSAQPTCIKSCDIPVFMNARTKNDFTWFKLNDTLDYECHDGYESNTGSTTGSIVCGYNGWSDLPICYEREGASGCPPPPQIPNSHNMTTTLNYRDGEKVSVLCQENYLIQEGEEITCKDGRWQSIPLCVEKIPCSQPPQIEHGTINSSRSSQESYAHGTKLSYTCEGGFRISEENETTCYMGKWSSPPQCEGLPCKSPPEISHGVVAHMSDSYQYGEEVTYKCFEGFGIDGPAIAKCLGEKWSHPPSCIKTDCLSLPSFENAIPMGEKKDVYKAGEQVTYTCATYYKMDGASNVTCINSRWTGRPTCRDTSCVNPPTVQNAYIVSRQMSKYPSGERVRYQCRSPYEMFGDEEVMCLNGNWTEPPQCKDSTGKCGPPPPIDNGDITSFPLSVYAPASSVEYQCQNLYQLEGNKRITCRNGQWSEPPKCLHPCVISREIMENYNIALRWTAKQKLYSRTGESVEFVCKRGYRLSSRSHTLRTTCWDGKLEYPTCAKRGGSGHHHHHH	64 % of the control	0.57
pCEP4-1NT9-11CT20 (other) EDCNELPPRRNTEILTGSWSDQTYPEGTQAIYKCRPGYRSLGNVIMVCRKGEWVALNPLRKCQKRPCGHPGDTPFGTFTLTGGNVFEYGVKAVYTCNEGYQLLGEINYRECDTDGWTNDIPICEVVKCLPVTAPENGKIVSSAMEPDREYHFGQAVRFVCNSGYKIEGDEEMHCSDDGFWSKEKPKCVEISCKSPDVINGSPISQKIIYKENERFQYKCNMGYEYSERGDAVCTESGWRPLPSCEEKSCDNPYIPNGDYSPLRIKHRTGDEITYQCRNGFYPATRGNTAKCTSTGWIPAPRCTLKPCDYPDIKHGGLYHENMRRPYFPVAVGKYYSYYCDEHFETPSGSYWDHIHCTQDGWSPAVPCLRKCYFPYLENGYNQNHGRKFVQGKSIDVACHPGYALPKAQTTVTCMENGWSPTPRCIRVKTCSKSSIDIENGFISESQYTYALKEKAKYQCKLGYVTADGETSGSITCGKDGWSAQPTCIKSCDIPVFMNARTKNDFTWFKLNDTLDYECHDGYESNTGSTTGSIVCGYNGWSDLPICYEREGASGCGPPPELLNGNVKEKTKEEYGHSEVVEYYCNPRFLMKGPNKIQCVDGEWTTLPVCIVEESTCGDIPELEHGWAQLSSPPYYYGDSVEFNCSESFTMIGHRSITCIHGVWTQLPQCVAIDKLKKCKSSNLIILEEHLKNKKEFDHNSNIRYRCRGKEGWIHTVCINGRWDPEVNCSMAQIQLCPPPPQIPNSHNMTTTLNYRDGEKVSVLCQENYLIQEGEEITCKDGRWQSIPLCVEKIPCSQPPQIEHGTINSSRSSQESYAHGTKLSYTCEGGFRISEENETTCYMGKWSSPPQCEGLPCKSPPEISHGVVAHMSDSYQYGEEVTYKCFEGFGIDGPAIAKCLGEKWSHPPSCIKTDCLSLPSFENAIPMGEKKDVYKAGEQVTYTCATYYKMDGASNVTCINSRWTGRPTCRDTSCVNPPTVQNAYIVSRQMSKYPSGERVRYQCRSPYEMFGDEEVMCLNGNWTEPPQCKDSTGKCGPPPPIDNGDITSFPLSVYAPASSVEYQCQNLYQLEGNKRITCRNGQWSEPPKCLHPCVISREIMENYNIALRWTAKQKLYSRTGESVEFVCKRGYRLSSRSHTLRTTCWDGKLEYPTCAKRGGSGHHHHHH	69 % of the control	0.172
